Test results from patent US20240254203A1.

Molecular target: MERS CoV spike protein (MERS CoV) (UniProt K9N5Q8)
Experiment: cell-based or functional assay

MERS CoV spike protein (MERS CoV), sequence (K9N5Q8 18-1353): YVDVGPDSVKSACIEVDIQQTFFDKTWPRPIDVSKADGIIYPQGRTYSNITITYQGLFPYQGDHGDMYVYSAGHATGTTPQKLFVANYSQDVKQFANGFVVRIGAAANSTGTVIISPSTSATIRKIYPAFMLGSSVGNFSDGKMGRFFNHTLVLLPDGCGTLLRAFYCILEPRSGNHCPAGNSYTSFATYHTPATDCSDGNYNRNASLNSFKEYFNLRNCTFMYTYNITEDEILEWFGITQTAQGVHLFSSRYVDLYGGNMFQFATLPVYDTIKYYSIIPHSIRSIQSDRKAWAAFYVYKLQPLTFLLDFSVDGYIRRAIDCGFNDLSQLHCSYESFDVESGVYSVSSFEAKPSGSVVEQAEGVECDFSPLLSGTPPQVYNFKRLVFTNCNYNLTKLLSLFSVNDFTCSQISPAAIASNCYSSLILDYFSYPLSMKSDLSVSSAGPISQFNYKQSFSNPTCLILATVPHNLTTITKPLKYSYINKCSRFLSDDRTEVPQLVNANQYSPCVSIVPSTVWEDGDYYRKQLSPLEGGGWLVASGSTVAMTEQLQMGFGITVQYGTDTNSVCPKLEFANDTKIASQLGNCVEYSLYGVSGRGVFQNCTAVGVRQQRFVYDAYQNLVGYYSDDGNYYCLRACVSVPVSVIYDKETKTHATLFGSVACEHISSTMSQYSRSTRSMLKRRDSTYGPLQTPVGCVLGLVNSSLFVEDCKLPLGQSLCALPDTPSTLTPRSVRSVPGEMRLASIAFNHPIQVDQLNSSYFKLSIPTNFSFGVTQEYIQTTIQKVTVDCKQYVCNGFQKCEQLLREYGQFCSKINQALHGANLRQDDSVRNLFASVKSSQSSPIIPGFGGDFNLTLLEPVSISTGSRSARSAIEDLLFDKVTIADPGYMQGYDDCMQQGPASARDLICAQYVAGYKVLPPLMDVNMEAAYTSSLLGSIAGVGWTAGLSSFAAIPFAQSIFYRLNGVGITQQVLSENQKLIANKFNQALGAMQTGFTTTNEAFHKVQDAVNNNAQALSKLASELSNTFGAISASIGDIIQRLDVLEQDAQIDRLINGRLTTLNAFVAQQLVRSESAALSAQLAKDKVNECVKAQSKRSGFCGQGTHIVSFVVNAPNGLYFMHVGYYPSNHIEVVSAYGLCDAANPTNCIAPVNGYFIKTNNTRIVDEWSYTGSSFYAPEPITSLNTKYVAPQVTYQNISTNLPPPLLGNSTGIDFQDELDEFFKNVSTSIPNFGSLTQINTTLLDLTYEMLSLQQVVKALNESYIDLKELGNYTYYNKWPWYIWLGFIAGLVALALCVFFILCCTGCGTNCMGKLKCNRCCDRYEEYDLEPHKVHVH

Binder | Antivirus vs Pseudovirus IC50 (pM) | IC50, neutralization of MERS CoV by the soluble antibody
αNTD:7D10/VM (scFv) scFv: DIVMTQSPASLTVSLGQRATISCRASKSVSASGYNYLHWYQQRPGQPPKLLIYLAFNLESGVPARFNGSGSGTDFTLNIHPVEEEDAATYYCQHSRDLPFTFGSGTKLEIKGGGSGGGSGGGSEVQLVESGAEVVKPGASVKMSCKASGYPFTSYNIHWIKQTPGQGLEWIGAIYPGNGDTSYTQKFKVKATLTSDKSSSTAYMQLSSLTSEDSAVYFCARYGNYPSYAMDYWGQGTSVTVSSSRGMLDSDLHLSSKAQVFEHPHIQDAASQLPDDESLFFGDTGLSKNPIELVEGWFSSWKSSIASFFFIIGLIIGLFLVLRVGIHLCIKLKHTKKRQIYTDIEMNRLGK | 12 pM | –
soluble 7D10 (antibody, V domains shown) VH: EVQLVESGAEVVKPGASVKMSCKASGYPFTSYNIHWIKQTPGQGLEWIGAIYPGNGDTSYTQKFKVKATLTSDKSSSTAYMQLSSLTSEDSAVYFCARYGNYPSYAMDYWGQGTSVTVSS VL: DIVMTQSPASLTVSLGQRATISCRASKSVSASGYNYLHWYQQRPGQPPKLLIYLAFNLESGVPARFNGSGSGTDFTLNIHPVEEEDAATYYCQHSRDLPFTFGSGTKLEIK | – | 1.2 nM
